Here are results for four molecules from patent US9688764B2, “Methods of treating breast cancer by administering anti-human prolactin receptor (PRLR) antibodies” (REGENERON PHARMACEUTICALS, INC., priority 2013, dated 2017).

The target of assay [1] is T1, hPRLR.mmh (soluble monomeric human PRLR) (Homo sapiens, UniProt P16471).
T1 construct: soluble monomeric (hPRLR.mmh); mmh (myc-myc-hexahistidine)
The experiment in a line: Surface plasmon resonance (Biacore T200), mAb-capture format. The assay is classed as binding. The conditions noted are these: antibody-capture format, analyte hPRLR.mmh. As to the method:
(§1) Antibodies, expressed as human IgG1 Fc “[…]” designations), were captured onto an anti-human Fc sensor surface (mAb-capture format), and soluble monomeric (hPRLR.mmh; SEQ ID NO:401, or macaca fascicularis (mf) PRLR.mmh; SEQ ID NO:403) or dimeric (hPRLR.mFc; SEQ ID NO:402) PRLR protein was injected over the sensor surface. Measurements were conducted on a T200 Biacore instrument. Kinetic association (ka) and dissociation (kd) rate constants were determined by processing and fitting the data to a 1:1 binding model using Scrubber 2.0 curve fitting software.

The target of assay [2] is mfPRLR.mmh (monomeric macaca fascicularis PRLR). Described as above. It counts as binding. The conditions noted are these: antibody-capture format, analyte mfPRLR.mmh. As to the method: as §1
Sequence of mfPRLR.mmh (monomeric macaca fascicularis PRLR) (as listed by the source): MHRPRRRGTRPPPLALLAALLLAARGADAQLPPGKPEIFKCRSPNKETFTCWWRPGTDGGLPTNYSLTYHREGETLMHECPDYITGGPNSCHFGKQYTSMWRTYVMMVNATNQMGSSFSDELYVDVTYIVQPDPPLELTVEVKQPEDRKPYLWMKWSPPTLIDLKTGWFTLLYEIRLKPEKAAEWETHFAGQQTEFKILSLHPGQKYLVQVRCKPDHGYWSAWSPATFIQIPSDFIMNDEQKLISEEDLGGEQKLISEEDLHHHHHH
The target of assay [3] is T2, hPRLR.mFc (soluble dimeric human PRLR) (Homo sapiens, UniProt P16471).
T2 construct: dimeric (hPRLR.mFc)
T2 sequence (P16471 with tags, fused parts or gaps): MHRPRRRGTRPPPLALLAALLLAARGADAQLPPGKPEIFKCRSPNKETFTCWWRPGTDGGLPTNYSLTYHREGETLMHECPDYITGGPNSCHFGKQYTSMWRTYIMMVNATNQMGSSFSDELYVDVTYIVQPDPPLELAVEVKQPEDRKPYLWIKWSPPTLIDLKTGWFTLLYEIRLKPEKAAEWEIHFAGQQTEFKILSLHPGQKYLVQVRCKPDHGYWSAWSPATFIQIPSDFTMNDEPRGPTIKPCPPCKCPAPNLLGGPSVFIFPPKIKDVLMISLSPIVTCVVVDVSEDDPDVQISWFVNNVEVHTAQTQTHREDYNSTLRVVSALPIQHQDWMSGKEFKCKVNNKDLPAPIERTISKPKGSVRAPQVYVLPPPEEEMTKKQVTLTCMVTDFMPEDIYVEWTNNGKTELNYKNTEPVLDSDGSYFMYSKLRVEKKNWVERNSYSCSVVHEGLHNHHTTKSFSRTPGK
The assay is described as above. It counts as binding. The conditions noted are these: antibody-capture format, analyte hPRLR.mFc. The procedure:
as §1

The subject of assay [4] is HEK293 (non-expressing parental cells). The experiment in a line: FACS cell surface binding. The procedure:
(§2) The ability of anti-PRLR antibodies to selectively bind PRLR expressing cell lines was next determined. Human, monkey macaca fascicularis, and mouse PRLR constructs with an HA tag were stably introduced into HEK293 cells via Lipofectamine 2000-mediated transfection methodology. Transfectants (HEK293/hPRLR, HEK293/mfPRLR and HEK293/mPRLR) were selected for at least 2 weeks in complete growth media plus G418.
(§3) Cell surface expression of PRLR on 293/hPRLR cells was assessed via FACS analysis. Briefly, 1×10^5 cells were incubated with 10 μg/ml of Control antibody I, or an isotype control for 30 min on ice in antibody dilution buffer. Following two washes with antibody dilution buffer, cells were incubated with 10 μg/ml of PE conjugated anti-human secondary antibodies for 30 min on ice. Following two additional washes, samples were run on a Hypercyt® cytometer and analyzed in FORECYT™ (IntelliCyt, Albuquerque, N. Mex.). The mean fluorescence intensities (MFI) were expressed as fold change above isotype control levels (background). FACS binding confirmed that Control I selectively bound to 293/hPRLR expressing cells with MFIs that were 30 fold above background (isotype ctrl) levels and less than 2 fold binding on parental cells.
(§4) Next, the anti-PRLR antibodies of the present invention were tested via FACS for selective binding to the engineered overexpressing PRLR HEK293 cell lines, as well as to non-expressing HEK293 cells and a native PRLR expressing cell line (T47D).

In assay [5] the target is T3, T47D (native PRLR expressing cell line) (Homo sapiens, UniProt P16471).
T3 construct: a native PRLR expressing cell line (T47D); endogenous in cells; host or cells: T47D
T3 sequence (P16471 25-622): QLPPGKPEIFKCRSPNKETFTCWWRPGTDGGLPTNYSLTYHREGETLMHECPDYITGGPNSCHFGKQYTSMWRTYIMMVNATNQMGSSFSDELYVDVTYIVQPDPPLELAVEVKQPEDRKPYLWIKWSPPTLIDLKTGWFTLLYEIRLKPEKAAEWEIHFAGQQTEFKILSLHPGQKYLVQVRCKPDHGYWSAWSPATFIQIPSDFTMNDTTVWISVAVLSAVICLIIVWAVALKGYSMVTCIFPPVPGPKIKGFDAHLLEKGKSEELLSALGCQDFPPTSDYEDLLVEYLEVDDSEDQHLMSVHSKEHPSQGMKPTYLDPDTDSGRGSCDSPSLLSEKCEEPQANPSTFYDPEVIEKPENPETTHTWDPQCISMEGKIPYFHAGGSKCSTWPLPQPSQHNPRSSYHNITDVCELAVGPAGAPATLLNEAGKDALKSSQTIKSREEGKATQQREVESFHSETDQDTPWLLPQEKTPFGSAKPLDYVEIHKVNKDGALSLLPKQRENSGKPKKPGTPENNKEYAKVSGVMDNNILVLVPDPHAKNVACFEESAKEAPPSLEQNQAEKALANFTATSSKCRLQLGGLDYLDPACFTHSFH
Kind of assay: FACS cell surface binding. As to the method: as §2, §3, §4

Another assay has as its target T4, HEK293/hPRLR (Homo sapiens, UniProt P16471).
T4 construct: HA; expressed in transfected cells; host or cells: HEK293
T4 sequence (P16471 25-622): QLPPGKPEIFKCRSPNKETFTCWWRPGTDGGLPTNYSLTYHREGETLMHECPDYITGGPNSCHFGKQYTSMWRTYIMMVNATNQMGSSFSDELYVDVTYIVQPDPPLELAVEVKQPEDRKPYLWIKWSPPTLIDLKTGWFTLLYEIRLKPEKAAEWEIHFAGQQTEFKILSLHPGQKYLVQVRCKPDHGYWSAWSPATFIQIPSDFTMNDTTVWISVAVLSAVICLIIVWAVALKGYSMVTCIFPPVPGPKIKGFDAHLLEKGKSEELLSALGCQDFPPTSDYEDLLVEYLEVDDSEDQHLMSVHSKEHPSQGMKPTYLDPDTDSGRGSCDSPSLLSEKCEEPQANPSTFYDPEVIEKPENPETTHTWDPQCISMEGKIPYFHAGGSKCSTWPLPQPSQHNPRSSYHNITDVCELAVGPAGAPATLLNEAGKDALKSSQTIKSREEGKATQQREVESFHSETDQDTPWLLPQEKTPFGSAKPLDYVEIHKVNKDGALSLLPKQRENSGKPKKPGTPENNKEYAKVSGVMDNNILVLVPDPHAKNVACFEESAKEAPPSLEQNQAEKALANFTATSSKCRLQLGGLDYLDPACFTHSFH
Kind of assay: FACS cell surface binding. As to the method:
as §2, §3, §4

For a further assay, the target named is T5, HEK293/mPRLR (Mus musculus, UniProt Q08501).
T5 construct: HA; expressed in transfected cells; host or cells: HEK293
T5 sequence (Q08501 20-608): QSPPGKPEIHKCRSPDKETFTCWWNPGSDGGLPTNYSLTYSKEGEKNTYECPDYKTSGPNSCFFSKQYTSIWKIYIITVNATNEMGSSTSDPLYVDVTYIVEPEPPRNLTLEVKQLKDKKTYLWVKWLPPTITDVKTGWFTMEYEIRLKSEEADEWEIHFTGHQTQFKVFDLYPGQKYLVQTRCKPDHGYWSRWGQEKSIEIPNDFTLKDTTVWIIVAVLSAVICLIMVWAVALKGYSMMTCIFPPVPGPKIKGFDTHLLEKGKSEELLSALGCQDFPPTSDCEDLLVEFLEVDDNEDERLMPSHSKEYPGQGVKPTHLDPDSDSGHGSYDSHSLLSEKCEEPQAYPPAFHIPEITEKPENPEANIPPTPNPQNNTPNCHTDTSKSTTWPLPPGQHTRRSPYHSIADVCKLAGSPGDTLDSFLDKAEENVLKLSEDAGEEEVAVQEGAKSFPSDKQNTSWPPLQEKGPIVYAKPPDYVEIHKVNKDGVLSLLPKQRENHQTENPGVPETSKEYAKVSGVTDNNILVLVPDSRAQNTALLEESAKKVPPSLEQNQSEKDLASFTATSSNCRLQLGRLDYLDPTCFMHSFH
The experiment in a line: FACS cell surface binding. The procedure:
as §2, §3, §4

T1 sequence (P16471 with tags, fused parts or gaps): as the sequence (as listed by the source) above, with V105I, T139A, M154I, T187I, I236T counted along it

B1: H1H6967N: human IgG1 Fc form of H2M6967N; anti-PRLR; HCVR/LCVR SEQ ID NOs 354/362 (antibody, V domains shown)
VH: EVQLVESGGDLVHPGRSLRLSCAASGFPFDEYAMHWVRQVPGKGLEWVSGISWSNNNIGYADSVKGRFTISRDNAKNSLYLQMNSLRPEDTAFYYCAKSGIFDSWGQGTLVTVSS
VL: EIVMTQSPATLSVSPGERATLSCRASQSVSRDLAWYQQKPGQAPRLLIHGASTRATGIPARFSGSGSGAEFTLIISSLQSEDFAVYYCQQYNNWPLTFGGGTKVEIK
modifications: human IgG1 Fc
In the case of B1, the dissociation constant Kd in assay [1] (25° C.) was found to be 1.35 nM; in assay [1] (37° C.) it was 2.2 nM; in assay [2] (25° C.), 3.08 nM; in assay [2] (37° C.), 4.54 nM; in assay [3] (25° C.), 0.11 nM; in assay [3] (37° C.), 0.107 nM. Further, the T½ in assay [1] (25° C.) is 34.8 min; in assay [1] (37° C.), 12.4 min; in assay [2] (25° C.), 19.7 min; in assay [2] (37° C.), 7.1 min; in assay [3] (25° C.), 259.3 min; in assay [3] (37° C.), 118.8 min. Besides, the “FACS Cell Binding (Fold Above Background)” value worked out at 1 Fold Above Background in assay [4], 41 Fold Above Background in assay [5], 38 Fold Above Background in the assay with HEK293/hPRLR and 2 Fold Above Background in the assay with HEK293/mPRLR.

B2: H1H6762P: anti-PRLR antibody, human IgG1 Fc; HCVR/LCVR SEQ ID NOs 2/10 (antibody, V domains shown)
VH: QVQLVESGGGVVQPGRSLRLSCAASGFTFSHYGMVWVRQPPGKGLEWVALISFDGTTKYYADSVKGRFTISRDNSKNTLYLQMNSLRAEDTAVYFCVGAIAAAAFDLWGRGTLVTVSS
VL: EIVMTQSPATLSVSPGERATLSCRASQSVSSDLAWYQQKPGQAPRLLIYSASARATGIPARFTGSGSGTDFTLTISSLQSEDFAVYYCQQYNNWPMYTFGQGTKLEIK
modifications: human IgG1 Fc
With B2, the Kd in assay [1] (25° C.) amounted to 0.259 nM; in assay [1] (37° C.), 0.48 nM; in assay [2] (25° C.), 0.511 nM; in assay [2] (37° C.) it was 0.823 nM; in assay [3] (25° C.), 0.0992 nM; in assay [3] (37° C.) it was 0.128 nM. The T½ in assay [1] (25° C.) came out at 64 min; in assay [1] (37° C.), 25 min; in assay [2] (25° C.), 55 min; in assay [2] (37° C.) it was 21 min; in assay [3] (25° C.) it was 179 min; in assay [3] (37° C.), 112 min. Further, the “FACS Cell Binding (Fold Above Background)” value in assay [4] is recorded as 1 Fold Above Background; in assay [5], 38 Fold Above Background; in the assay with HEK293/hPRLR, 36 Fold Above Background; with HEK293/mPRLR, 2 Fold Above Background.

B3: H1H6976N: human IgG1 Fc form of H2M6976N; anti-PRLR; HCVR/LCVR SEQ ID NOs 386/394 (antibody, V domains shown)
VH: EVQLLESGGGFVQPGGSLRLSCAASGFTFSSYAMSWVRQAPGKGLEWVSIISSNGRYTYYADSVKGRFTISRDNSKNTLYLQMNSLRAEDTAVYYCATVTGDWFDPWGQGTLVTVSS
VL: DIQLTQSPSFLSASVGDRVTITCWASQDIDISLAWYQQKPGKAPKLLIYAASTLQSGVPSKFSGSGSGTDFTLTISSLQPEDFSTYYCQQLNSYPITFGQGTRLDIK
modifications: human IgG1 Fc
B3: the Kd in assay [1] (25° C.) was determined as 1.59 nM; in assay [1] (37° C.) it was 4.04 nM; in assay [2] (25° C.), 1.75 nM; in assay [2] (37° C.) it was 5.24 nM; in assay [3] (25° C.), 0.0906 nM; in assay [3] (37° C.) it was 0.102 nM. Also, the T½ in assay [1] (25° C.) came out at 13.4 min; in assay [1] (37° C.) it was 3.7 min; in assay [2] (25° C.), 14.2 min; in assay [2] (37° C.), 3.7 min; in assay [3] (25° C.) it was 114.4 min; in assay [3] (37° C.), 82.6 min. Besides, the “FACS Cell Binding (Fold Above Background)” value in assay [4] came out at 1 Fold Above Background; in assay [5], 37 Fold Above Background; with HEK293/hPRLR, 8 Fold Above Background; with HEK293/mPRLR it was 1 Fold Above Background.

B4: H1H6975N: human IgG1 Fc form of H2M6975N; anti-PRLR; HCVR/LCVR SEQ ID NOs 370/378 (antibody, V domains shown)
VH: EVHLVESGGGLVQPGGSLRLSCAASGFTFSSYEMNWVRQTPGKGLEWISHISSRSVIIYYADSVKGRFTISRDNAKNSLFLQMNSLRAEDTAVYFCAGITIFGIPEYWGQGTLVTVSS
VL: EIVLTQSPATLSLSPGERATLSCRASQSVSSYFAWYQQKPGQAPRLLIYDASSRATGIPTRFSGSGSGTDFTLTISSLEPEDFAVYYCQQRSSWPITFGQGTRLEIK
modifications: human IgG1 Fc
On to B4, for which the Kd worked out at 0.49 nM in assay [1] (25° C.); 1.29 nM in assay [1] (37° C.); 1.14 nM in assay [2] (25° C.); 2.27 nM in assay [2] (37° C.); 0.0684 nM in assay [3] (25° C.); 0.184 nM in assay [3] (37° C.). Also, the T½ is on record as 157.1 min in assay [1] (25° C.); 42.3 min in assay [1] (37° C.); 88.2 min in assay [2] (25° C.); 36.4 min in assay [2] (37° C.); 587.8 min in assay [3] (25° C.); 163.0 min in assay [3] (37° C.). Moreover, the “FACS Cell Binding (Fold Above Background)” value was determined as 1 Fold Above Background in assay [4], 46 Fold Above Background in assay [5], 38 Fold Above Background with HEK293/hPRLR and 1 Fold Above Background with HEK293/mPRLR.

What is called Kd is the concentration at which binding is half-saturated. High values mean a looser complex, low ones a tighter complex.
